Measured values: patent publication US20190241648A1 (STATEN BIOTECHNOLOGY B V, published 2019)
Values belong to the binder of their own block, whether it stands above or below them.

Experiments:
[1] = target: T1, human ApoC3 (huApoC3), native protein purified from human serum (human, UniProt P02656 21-99); assay: cell-based or functional assay
[2] = target: T1, human ApoC3 (huApoC3), native protein …; assay: SPR Biacore, huApoC3 on chip, scFv-Fc as analyte
Method: This example describes characterization of anti-ApoC3 antibodies regarding their affinity to ApoC3 under neutral conditions using an SPR-based assay using a Biacore 3000 instrument (Biacore AB). Native huApoC3 protein was immobilized on a CM5 chip. The immobilization was performed in accordance with the method provided by Biacore using the NHS/EDC kit (Biacore AB): after activation of the chip, a solution of 60 μg/ml of human ApoC3 in 10 mM acetate buffer with pH of 4.5 was prepared and injected until the surface density reached approximately 1000 RU. Capturing of the human ApoC3 on the streptavidin coated chip (SA) was performed at pH 7.4 in accordance with a method provided by Biacore via injection of 20 μl 10 μg/ml biotinylated human ApoC3 thereby reaching the surface density of approximately 500 RU. […] After the dissociation, the flow cell surfaces were regenerated by injecting 10 μl of 10 mM […]/1 M NaCl and 10 μl of 10 mM glycine at pH1.5. The resulting sensorgrams were analyzed using the BIAevaluation 4.1 software using Langmuir 1:1 binding model to derive binding kinetics. Data was zero adjusted and the reference cell sensorgrams were subtracted.
A number of scFv-Fc antibodies were examined in this assay. The association rate (ka), dissociation rate (kd), analyte binding capacity (Rmax), equilibrium association constant (KA) and equilibrium dissociation constant (KD) of these antibodies are shown in Table 5.

T1 sequence (P02656 21-99): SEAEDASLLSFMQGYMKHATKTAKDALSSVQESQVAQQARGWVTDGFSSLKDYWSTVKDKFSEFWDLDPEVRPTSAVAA

attenuation of the ability of ApoC3 to inhibit VLDL uptake by HepG2 cells [1]: ~60%
B1: 8B4 scFv-Fc (Fc fusion)
VH: ELQLVESGGGLVQPGGSLRLSCAASGFTFSNAYLYWVRQVPGKGLEWVSGINPAGDGRAYATSVKGRFTISRDNAKNTLYLQMNTLESDDTAVYYCATASRVVAYDSWGQGTQVTVSS
VL: EIVLTQSPSSVTASVGEKVTINCKSSQSVESGSDQKSYLNWYQQRPGQSPRLLIYYASTQESGIPDRFSGSGSTTDFTLTISSVQPEDAAVYYCQQAYSAPFTFGQGTKVELK

EC50, attenuation of ApoC3-mediated LPL inhibition (NEFA production) [1]: ~3000 nM
B2: 13G7 IgG1 (antibody, V domains shown)
VH: QVQLQESGPGLVKPSQTLSLTCTVSGGSISTTAPAWGWIRQSPGKGLDWMAVIAFDGSAYYSPSLKSRTLISRDTSKNQFSLQLSSVTPEDTAVYYCARLGGRNYPPYVELWGQGTLVTVSS
VL: QPVLTQPPALSVTLGQTAKITCQGGSLRVSYAHWYQQKPGQAPVLVSYDDDSRPSGIPERFSGSGSGATATLTISGAQAEDEGDYYCQSADSSGDNWVFGGGTHLTVL

attenuation of the ability of ApoC3 to inhibit VLDL uptake by HepG2 cells [1]: ~100%
B3: 13G7 scFv-Fc (Fc fusion)
VH: QVQLQESGPGLVKPSQTLSLTCTVSGGSISTTAPAWGWIRQSPGKGLDWMAVIAFDGSAYYSPSLKSRTLISRDTSKNQFSLQLSSVTPEDTAVYYCARLGGRNYPPYVELWGQGTLVTVSS
VL: QPVLTQPPALSVTLGQTAKITCQGGSLRVSYAHWYQQKPGQAPVLVSYDDDSRPSGIPERFSGSGSGATATLTISGAQAEDEGDYYCQSADSSGDNWVFGGGTHLTVL

Ka [2]: 5.89e+08 M⁻¹ | Kd [2]: 1.7 nM | koff [2]: 0.000207 s⁻¹ | kon [2]: 122000 M⁻¹ s⁻¹
B4: 11H1 scFv-Fc (Fc fusion)
VH: ELQLVESGGGLVQPGGSLRLSCAASGFTFSSYSMRWVRQAPGKGLEWLSSIKSDGSITSYADSVKGRFTMSRDNAKNTLYLQMNSLKSEDTAMYYCTNQGYINWGQGTQVTVSS
VL: ATMLTQSPGSLTIVPGESASISCRASQSLIHSAGKTYFYWLLQKPGQRPQLLIYQVSNRESGVPDRFTGSGSGTDFTLKISGVKAEDAGVYYCAQGTYNPKTFGQGTKLEIK
notes: scFv-Fc format

Ka [2]: 4.16e+09 M⁻¹ | Kd [2]: 0.24 nM | koff [2]: 0.000675 s⁻¹ | kon [2]: 2.81e+06 M⁻¹ s⁻¹
B5: 8B7 scFv-Fc (Fc fusion)
VH: EVQVQESGPGLVKPSQTLSLTCTVSGASITNRRYAWTWIRQPPGKGLEWMGVIVYDGNTHVSPSLRSRTSISRDTSKNQFSLQLSSLTPEDTAVYYCARVLLLRDPLSLDYWGQGTQVTVSS
VL: SSALTQPPSMSGTLGKTLTISCAGTSSDIGAYNFVSWYQQLPGTAPKLLIYDIDKRASGIPDRFSGSKSGNTASLSISGLQSEDEADYYCAAYGSRDNVVFGGGTHLTVL
notes: scFv-Fc format

Ka [2]: 3.87e+09 M⁻¹ | Kd [2]: 0.258 nM | koff [2]: 0.00067 s⁻¹ | kon [2]: 2.59e+06 M⁻¹ s⁻¹
B6: 7A9 scFv-Fc (Fc fusion)
VH: EVQVQESGPGLVKPSQTLSLTCTVSGASITNRRYAWTWIRQPPGKGLEWMGVIVYDGNTHVSPSLRSRTSISRDTSKNQFSLQLSSLTPEDTAVYYCARVLLLRDPLSLDYWGQGTQVTVSS
VL: SSALTQPPSMSGTLGKTLTISCAGTSSDIGAYNFVSWYQQLPGTAPKLLIYDIDKRASGIPDRFSGSKSGNTASLSISGLQSEDEADYYCAAYGSRDNVVFGGGTHLTVL
notes: scFv-Fc format

Ka [2]: 2.08e+09 M⁻¹ | Kd [2]: 0.48 nM | koff [2]: 0.000647 s⁻¹ | kon [2]: 1.35e+06 M⁻¹ s⁻¹
B7: 5A7 scFv-Fc (Fc fusion)
VH: EVQVQESGPGLVKPSQTLSLTCTVSGASITNRRYAWTWIRQPPGKGLEWMGVIVYDGNTHVSPSLRSRTSISRDTSKNQFSLQLSSLTPEDTAVYYCARVLLLRDPLSLDYWGQGTQVTVSS
VL: SSALTQPPSMSGTLGKTLTISCAGTSSDIGAYNFVSWYQQLPGTAPKLLIYDIDKRASGIPDRFSGSKSGNTASLSISGLQSEDEADYYCAAYGSRDNVVFGGGTHLTVL
notes: scFv-Fc format

attenuation of the ability of ApoC3 to inhibit VLDL uptake by HepG2 cells [1]: ~95%
B8: 13C7 scFv-Fc (Fc fusion)
VH: QLQLVESGGGLVQPGGSLRLSCAASGGTFSRYYMSWVRQAPGKGLEWVSSIYKDGSNTYYADSVKGRFTISRDNAKNTLYLQMNSLKSEDTAVYYCAKALRAEYDYWGQGTQVTVSS
VL: NFMLTQPPSVSGTLGKTVTISCAGTSSDIGGYNYVAWYQQLPGTAPKLLISEVNKRASGIPDRFSGSKSGNTASLSISGLQSEDEADYYCASYRSSNSYVFGGGTKLTVL

attenuation of the ability of ApoC3 to inhibit VLDL uptake by HepG2 cells [1]: ~100%
B9: 12A3 scFv-Fc (Fc fusion)
VH: ELQLVESGGGLVQSGGSLRLSCAASGFTFSNYAMRWVRQAPGGRLEWVSSINIAGSSVVYADSVKGRFTISRDNAKNTLYLQMNSLKSEDTAVYYCAMQGFVYWGQGTQVTVSS
VL: DVVLTQTPGSLSVVPGESANISCKAGRSLVHSDGRTYLYWLLQKPGQSPQRLIYQVSNRSSGVPDRFTGSGSGTDFTLKITGVKAEDAGVYYCAQGTYYPVTFGQGTKVELK

attenuation of the ability of ApoC3 to inhibit VLDL uptake by HepG2 cells [1]: ~85%
B10: 12C3 scFv-Fc (Fc fusion)
VH: ELQLVESGGGLVQPGGSLRLSCAASGFTFSSYSMFWVRQSPGKGLERVSGINGGGDRSNYADSVRDRFTISRDNAKNTLYLQMNSLKSEDTAVYYCVIQGYAYWGQGTQVTVSS
VL: DVVLTQTPASLSVVPGESASISCKASQSLVHSDGKTYLYWLLQKPGQSPQRLIYQTSNRGSGVPDRFTGSGSGTDFTLDISGVKAEDAGVYYCAQATYSPHTFGSGTRLEIK

attenuation of the ability of ApoC3 to inhibit VLDL uptake by HepG2 cells [1]: ~60%
B11: 12D4 scFv-Fc (Fc fusion)
VH: QLQLVESGGGLVQPGGSLRVSCAASGFTFSSSNMRWVRQVSGKGLEWVSTISPDGGKTLYADSVKGRFTISRDNAKNTLHLQMVSLKPEDTALYYCVKAGYDYWGQGTQVTVSS
VL: ATMLTQSPGSLSVVPGESASISCKASQSLVHSDGKTYLYWLLQKPGQSPQRLIYQVSNQGSGVPDRFTGSGSGTDFTLKISGVKAEDAGVYYCAQATYAPHSFGSGTRLEIK

attenuation of the ability of ApoC3 to inhibit VLDL uptake by HepG2 cells [1]: ~40%
B12: 12E12 scFv-Fc (Fc fusion)
VH: EVQLVESGGDLVQPGGSLRVSCAASGLTFSNIYMSWVRQAPGKGLEWVSAINTAGTVTYYADSVKGRFTISRDNAKNTLYLQMNSLKPEDTAHYYCTTGEVDWGKGTLVTVSS
VL: QTVVTQEPSLSVSPGGTVTLTCGLSSGSVTSVTYPGWYQQKPGQAPRTLIYNTNSRFSGVPNRFSGSISGNKAALTITGALPEDEADYYCSVYIGGGIYPAVFGGGTHLTVL

attenuation of the ability of ApoC3 to inhibit VLDL uptake by HepG2 cells [1]: ~60%
B13: 12D1 scFv-Fc (Fc fusion)
VH: QLQLVESGGGLVQPGGSLRLSCAASGFTFGTYSMRWVRQVPRKALEWVSSISTDGGGTAYRDSVKGRFTISRDNAKNTLYLQMNNLKPEDTAIYYCVIAGYSDWGQGTQVTVSS
VL: SALDVVLTQTPGSLSVVPGESASISCKTSQSLTHSDGKTYLYWLLQKPGQSPQRLIYQVSNRGSGVPDRFTGSGSGTDFTLKISGVKAEDAGMYYCAQATYYPHTFGSGSRLEIER

attenuation of the ability of ApoC3 to inhibit VLDL uptake by HepG2 cells [1]: ~100%
B14: 12C12 scFv-Fc (Fc fusion)
VH: EVQVQESGPGLVKPSQTLSLTCTVSGGSITTSYYAWTWIRQPPGKGLEWVGAIVYDGSTFYSPSLKSRTSISRDTSKSQFSLQLSSVTPEDTAVYYCARSYGLGLYDLWGQGTQVTVSS
VL: QAVLTQPPSVSGSPGQKFTISCTGSSSNIGDNYVNWYQHLPGTAPKLLIYSNSNRASGVPDRFSGSKSGSSASLTITGLQAEDEADYYCSSWDDSLSGVVFGGGTHLTVL
